Data: the nanobody polyreactivity screen of Harvey et al. (2022)

experiment: yeast display, Sf9 membrane polyspecificity reagent, FACS + sequencing; frameworks hold sequencing errors
How it was run: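 Synthetic nanobody libraries on Saccharomyces cerevisiae BJ5465 were galactose-induced for 36–48 hours, stained 1 hour at 4 °C with 10% biotinylated, detergent-solubilized Sf9 membrane reagent and enriched on streptavidin microbeads. FACS then separated cells into low and high (top ~1%) gates by anti-HA (expression) and streptavidin (reagent binding) fluorescence. Genes were colony-PCR amplified, MiSeq 2 × 250 sequenced and CDR-length filtered. A clone's polyreactivity label is that of its gate of origin.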

Sequence | polyreactivity (PSR sort gate)
QVQLVESGGGLVQAGGSLRLSCAASGGTFSPYDMGWYRQAPGKERELVASITGSGGSTYYADSVKGRFTISRGNAKNTVYLQMNSLKPEDTAVYYCAAQGYCTYWPYLLRLYEYWGHGTQVTVSS | low polyreactivity
QVQLVESGGGLVQAGGSLRLSCAASGGTFSTYAMGWYRQAPGKERELVAAISWRGGSTYYADSVKGRFTISRDNAKNTVYLQMNSLKPEDTAVYYCAAYYSRGWLLYWDEMSYWGQGTQVTVSS | high polyreactivity
QVQLVESGGGLVQAGGSLRLSCAASGGTFSVNAMGWYRQAHGTERELVAAISWRGGSTYNADSVKGRFTISRDTAKNTFYLQMNSLKPEDTAVYYCAKYRYYYYWFNYWGQGTQVNVSS | high polyreactivity
QVQLVESGGGLVQAGGSLRLSCAASGGTFSYYAMGWYRQAPGKERELVAAISKRGGSTYYADSVKGRFTISRDNAKNTVYLQMNSLKPEETAVYYCARGYSWSVGYPRVQDMDYWGQGTQVTVSS | high polyreactivity
QVQLVESGGGLVQAGGSLRLSCAASGGTFSYYAMGWYRQAPGKGELVAAISSGGSTNYADSVKGRFTISRDNAKNTVYLQMNSLKPEDTAVYYCAARYRFWGPYNYWGQGTQVTVSS | high polyreactivity
QVQLVESGGGLVQAGGSLRLSCAASGGTFTDYAMGWYRQAPGKERELVAAISSVGSTNYADSVKGRFTITRDNAQNTVYLQMNSLNPEDTAVYYCAADVYRYWISEYDDYWGQGTQVNVSS | low polyreactivity
QVQLVESGGGLVQAGGSLRLSCAASGGTFTFYAMGWYRQAPGKERELVATINWSGGSTYYADSVKGRFTISRDNAKNTVYLQMNSLKPEDTAVYYCNAAWPYKSVEYWGQGTQVTVSS | low polyreactivity
QVQLVESGGGLVQAGGSLRLSCAASGGTFTGYAMGWYRQAPGKERELVAAIRSRGGSTYYADSVKGRFTISRDNAKNTVYLQLNSLKPEDTAFYYCNAVSRFSYGYDYWGQGTQVSVSS | high polyreactivity
QVQLVESGGGLVQAGGSLRLSCAASGGTFTGYAMGWYRQEPGKERELVAGISRSGGSTYYADSVKGRFTISRDNAKNTVYLQMNSLKPEDTAVYYCAKDVLKYRYWYYPGYDYWGQGTQVTVSS | high polyreactivity
QVQLVESGGGLVQAGGSLRLSCAASGGTFTRYAMGWYRQAPGKEREFVAAISGSGGSTYYADSVKGRFTISRDNAKNTVYLQMNSLKPEDTAVYYCNKVPVYPPSYYWGQGTQVTVSS | low polyreactivity
QVQLVESGGGLVQAGGSLRLSCAASGGTFTTNAMGWYRQAPGKERELVAAITSSGVRTYYADSVKGRFTISRDNAKNTVYLQMNSLKPEDTAVYYCNAVTRYVRLTDDDYWGQGTQVTVSS | high polyreactivity
QVQLVESGGGLVQAGGSLRLSCAASGGTFTYYAKGWYRQAPGKERELVAAISWSDTSTYYADSVKGRFTISRDNAKNTVYLQMNSLKPEDTAVYYCAAEFYVRYQADYEYWGQGTQVTVSS | high polyreactivity
QVQLVESGGGLVQAGGSLRLSCAASGGTFTYYTMGWYRQAPRKERELVAAISTGGRTYYADSVKGRFTISRDNAKNTVYLQMNSLKPEDTAVYYCDADTYTSRSRYSGSGGYDYWGQGTQVTVSS | low polyreactivity
QVQLVESGGGLVQAGGSLRLSCAASGGTFVSYALGWSRQAPGKERELVAAITYSGGSTYYADSVKGRFTISRDTAKNTVYLQMNSLKPEDTAVYYCAADLGRNLLHTYYYWGQGTQVTVSS | low polyreactivity
QVQLVESGGGLVQAGGSLRLSCAASGGTFWIYAMGSYRQAPGKERELVAGISHGDSTYYADSVKGRFTISRDNAKNTVYLQMNSLKPEDTAVYYCARDYRNPPFAYEYWGQGTQVTVSS | low polyreactivity
QVQLVESGGGLVQAGGSLRLSCAASGGTFWYNAMGLYRQAPGKERELVANIRRSGGRTNYADSVKGRFTISRDNAKNTVYLHMNSLKPEDTAVYYCAARVTPYRGFYYWGQGTQVTVSS | high polyreactivity
QVQLVESGGGLVQAGGSLRLSCAASGGTFYDYAMGWYRQAPGKERELVAAISASGDSTYYADSVKGRFTISRDNAKNTVYLQMNSLKPEDTAVYYCAAEFTAFDGFDYWGQGTQVNVSS | low polyreactivity
QVQLVESGGGLVQAGGSLRLSCAASGGTFYFYAMVWYRQAPGKERELVAAISRSGGSTYYADSVKGRFTISRDNAKNTVYLQMNSLKPEDTAVYYCAARYTGGGIRYDYWGQGTQVTVSS | high polyreactivity
QVQLVESGGGLVQAGGSLRLSCAASGGTFYQYAMGWYIQAPGKERELVAAISRSGGRTYYADSVKGRFTISRDNAKNTVYLQMNSLIPEDTAVYYCAADDVGPPDFYYWGQGTQVTVSS | high polyreactivity
QVQLVESGGGLVQAGGSLRLSCAASGGTFYVNAMGWYRQAPGKERELVADISYSGGRTYYADSVKGRFTISRDNAKKTVYLQMNSLKPEDTAVYYCAADPYWVGYGSPFGYWGQGTQVTVSS | high polyreactivity
QVQLVESGGGLVQAGGSLRLSCAASGGTFYYYAMGWYRQAPGKERELVAAINVSGGNTYYADSVKGRFTISRDNAKNTVYLQMNSLKPEDTAVYYCAADPGARYYYWGQGTQVTVSS | low polyreactivity
QVQLVESGGGLVQAGGSLRLSCAASGGTFYYYAMGWYRQAPGKERELVAAISWSGVSTSYADSVKGRFTISRDNAKNTVFLQMNSMKPEDTAVYYCAAGPFYYTGGHWGQGTQVTVSS | high polyreactivity

Sequence | polyreactivity (PSR sort gate)
QVQLVESGGGLVQAGGSLRLSCAASGGTFYYYAMGWYRQAPGKERELVAAITGTGGRTYYADSVKGRFTISRDNAKNTVYLQMNSLKPEDTAVYYCAKYPAARAVDYWGQGTQVTVSS | high polyreactivity
QVQLVESGGGLVQAGGSLRLSCAASGGTFYYYAMGWYRQAPGKERELVATITWSGDSTNYADSVKGRFTISRDNAKNTVYLQMNSLKPEDTAVYYCAKDLTQSYEYDYWGQGTQVTVSS | low polyreactivity
QVQLVESGGGLVQAGGSLRLSCAASGGTGARNAMGWYRQAPGKERELVATITRRAGTTYYADSVKGRFTISRDNAKNTVYLQMNSLKPEDTAVYYCARVATWGYYPYLIPEVGYDYWGQGTQVTVSS | high polyreactivity
QVQLVESGGGLVQAGGSLRLSCAASGGTIAFNGMGWYRQAPGKERELVAAITWRSGSTYYADSVKGRFTISRDNAKNTVYLQMNSLKPEDTAVYYCAARLYRYTPFDYWGQGTQVTVSS | high polyreactivity
QVQLVESGGGLVQAGGSLRLSCAASGGTIAPYAMGWYRQAPGKERELVATISYSGTSTNYADSVKGRFTISRDNAKNTVYLQMNSLKPEDTAVYYCAKRYHQYRWRGWLWGFDYWGQGTQVTVSS | high polyreactivity
QVQLVESGGGLVQAGGSLRLSCAASGGTIGWYAMGWYRQAPGKERELVAAITSSGGTTFYADSVKGRFTISRDNAKNTVYLQMNSLKPEDTAVYYCAKRGKRPTRYKLGKYDYWGQGTQVTVSS | high polyreactivity
QVQLVESGGGLVQAGGSLRLSCAASGGTIRYYAMGWYSQAPWKERELVAAISVGGGRTYYADSVKGRFTISRDNAKNTVYLQMNSLKPEDTAVYYCAADYASWSNWGYEYWGQGTQVTVSS | high polyreactivity
QVQLVESGGGLVQAGGSLRLSCAASGGTISRYGMGWYRPAPRKERELVAAITRSGSTNYADSVKERFTISRDNAKYTVYLQMNSLKPEDTAVYYGATDKRGRIGGTFDYWGQGTQVTVSS | low polyreactivity
QVQLVESGGGLVQAGGSLRLSCAASGGTLDVYAMGWYRQAPGKEREFVAAISWSGGRTYYADSVKGRFTISRDNAKNTVYLQMNSLKPEDTAVYYCATRDRAGYYYWGQGTQVTVSS | high polyreactivity
QVQLVESGGGLVQAGGSLRLSCAASGGTLDYYVMAWYRQAPGKERELVAAISTNGGSTNYADSVKGRFTISRDNAKNTVYLQMNSLKPEDTAVYYCAATSDVYVFLEFDYWGQGTQVTVSS | low polyreactivity
QVQLVESGGGLVQAGGSLRLSCAASGGTLRGYAMGGYRQAPGKEREFDATISRRGGSTYYADSVKGRFTNSRDNAKNTVYLQMNSLKPEDTAVYYCAKQGQSDYYSWGQGTQVTVSS | high polyreactivity
QVQLVESGGGLVQAGGSLRLSCAASGGTLRYYAMGWYRQAPGKEREFVASISRSGGSTYYADSVKGRFTISRDNAKNTVYLQMNSLKPEDTAVYYCAAYWSPGYTTRRGYWGQGTQVTVSS | high polyreactivity
QVQLVESGGGLVQAGGSLRLSCAASGGTLRYYAMGWYRQAPGTEREFVASIARSGGSTYYADSVKGGFTISRDNAKNTVYLQMNRLKPEDTAVYYCADRVRLYRGFTKYDYWGQGTQVTVSS | high polyreactivity
QVQLVESGGGLVQAGGSLRLSCAASGGTLYYYAMGWSRQAPGKERELVADITNSGSTNYADSVKGRFTISRDNAKNTVYLQMNSLKPEDTAVYYCAAYSWSWYHPEFDYWGQGTQVTVSS | high polyreactivity
QVQLVESGGGLVQAGGSLRLSCAASGGTSRSYAMGWYRQAPGKERELVAAISWRGGRTYYADSVKGRFTISRDNAKNTVYLQMNSLKPEDTAVYYCAARQYSQEPYDYWGQGTQVTVSS | high polyreactivity
QVQLVESGGGLVQAGGSLRLSCAASGGTVKYYAMGWSRQSPGKERELVAAITWSGGSTYYADSVKGRFTISRDNAKNTVYLQMNSLKPEDTAVYYCNAAYSQISFNYWGQGTQVTVSS | high polyreactivity
QVQLVESGGGLVQAGGSLRLSCAASGGTVYRNAMGWYRQAPGKERELVAAITRSGSTNYADSVKGRFTISRDNAKNTVYLQMNSLKPEDTAVYYCAAKFFRNTYSYGMDYWGQGTQVTVSS | high polyreactivity
QVQLVESGGGLVQAGGSLRLSCAASGHIFFINAMGWYRQAPGKERELVAAIDWSGGSTYYADSVKGRFTISRDNAKNTDYLQMNSLKPADTAVYYCAAELLWDYILYYYWGQGTQVTVSS | high polyreactivity
QVQLVESGGGLVQAGGSLRLSCAASGHIFFYYTMGWYRQAPGKERELVAGITIGGSTNYADSVKGRFTISRDNAKNTVYLQMNSLKPEDTAVYYCNVVKYVYIYTYWEYYYWGQGTQVTVSS | low polyreactivity
QVQLVESGGGLVQAGGSLRLSCAASGHIFGRYAMGWYRQAPGKERELVAAITSGGRTNYADSVKGRFTISRDNAKNTVYLQMNSLKPEDTAVYYCAAYSWYFGSRYDYWGQGTQVTVSS | low polyreactivity
QVQLVESGGGLVQAGGSLRLSCAASGHTFRYYAMGWYRQAPGKERELVAAITGGGGSTYYADSVKGRFTISRDNAKNTVYLQMNSLKPEDTAVYYFATGGVSGIVGGDYWGQGTQVTVSS | low polyreactivity
